Paper PMC9274004, “Deciphering the Molecular Interaction Between the Adhesion G Protein-Coupled Receptor ADGRV1 and its PDZ-Containing Regulator PDZD7” (Frontiers in Molecular Biosciences, 2022)
Where a chain is given by its changes, count along the chain named. Names may count otherwise.

B1: PDZ2: second PDZ of mouse PDZD7 (G206 to G292) (protein)
chain: GVRRIVHLYTTSDDFCLGFNIRGGKEFGLGIYVSKVDHGGLAEENGIKVGDQVLAANGVRFDDISHSQAVEVLKGQTHIMLTIKETG
modifications: left off: GST, N-terminal, cleaved
B2: PDZ2 G228R: PDZD7 PDZ2 carrying deafness-causing mutation G228R (protein, UniProt E9Q9W7 206-292, looked up, variant G228R)
chain: B1 chain with G23R
B3: G103R: full-length murine PDZD7-GFP carrying G103R variant (protein, UniProt E9Q9W7 1-1021, looked up, variant G103R)
chain: MARGFTVGFDPLGLGELSSGSLSSVSSRGHLGSDSGSTATRYLLRKQQRLLNGPSRGIRASSPMGRVILINSPIEANSDESDIIHAVRVEKSPSGRLGFSVRRGSEHGLGIFVSKVEEGSSAERAGLCVGDKITEVNGLSLESTTMGSAVRLLTSSSCLHMMVRRMGRVPGIKFSKEKTTWVDVVNRRLVVEKCSSTPSDRSSEDGVRRIVHLYTTSDDFCLGFNIRGGKEFGLGIYVSKVDHGGLAEENGIKVGDQVLAANGVRFDDISHSQAVEVLKGQTHIMLTIKETGRYPAYKEMVSEYCWLDRLSNGVLQQLSPASESSSSVSSYASSAPCSSGSLPSDRMDVCLGPEEPTSHGPGWGRADTAMQTEPDLDSRVETWCSVRPTVILRDTAIRSDGPSSTRHLDSALSESPKTALLLALSRPRTPITRSQSHLTLWEEKKQRKKEKSGSSGEKGALQRSKTLMNLFFKGGRQGRPAGDGHREAWTLDSRSPTKVRPRLDLEKAGSVGPVQKFVTWRLRRDRERGRALLSARSGSPSGQAPTVNEQVQAWESRRPLIQDLARRLLTDDEVLAVTRHCSRYVHEGGVEDLVRPLLAILDRPTKLLLLRDIRSVVAPTDLGRFDSMVMPVELEAFEALKSRAVGPSALRPTRQDTPPKRHLITPVPDSRGGFYLLPVNSSEDEDGEIREKLGVLKVSLGASAPHHKGIPPLQDVPVDAFSLRRGACAPPPQPPPVAPRPPRPNWLLTEPLSREDTQQNQSQTPAQSCSRSRSRSRSRSHSRGQGKSPGRRRSPSPAPIATAATANGRYHRPRKARPLLPRLLDGQVAKVGARQGPLENGRIAEEAVGNVSTGALRTITLSKMKQSLGISISGGIESKVQPMVKIEKIFPGGAAFLCGDLQAGFELVAVDGESLEQVTHQRAVDTIRRAYRNKAREPMELVVRVPGPGLLPLASDLRVVKDQSLAPDCPSALGPVDDARILTQLPPPEARQLQQSLSSALKVPQSIPKLSPILKDPHDPS
modifications: full-length C-terminal GFP fusion
notes: full-length murine PDZD7-GFP carrying G103R variant
B4: G228R: full-length murine PDZD7-GFP carrying G228R variant (protein, UniProt E9Q9W7 1-1021, looked up, variant G228R)
chain: B3 chain with R103G, G228R
modifications: full-length C-terminal GFP fusion
notes: full-length murine PDZD7-GFP carrying G228R variant

How the values were obtained:
[1] = Aggregation / sample stability of purified PDZ2 constructs; type: physicochemical
Description: The biochemical behavior of PDZD7 PDZ2 drastically differs from PDZ1, with or without its C-terminal extension. […] In order to further establish the accessible folding states of the PDZ2 extension, we used the same metadynamics approach as for PDZ1ext and probed its conformational energy landscape (Figure 3C).

[2] = Degradation of PDZD7-GFP variants expressed in HeLa cells; conditions: western blot, compared to the wild-type
Method: HeLa cells were maintained in Dulbecco’s modified Eagle’s medium (DMEM) containing 10% fetal calf serum (FCS). PDZD7 constructs correspond to the full-length murine sequence in fusion with a N-terminal strep tag and a C-terminal GFP, wild-type or carrying G103R/G228R variants, cloned in a PMT3 vector. The ADGRV1 construct corresponds to the murine β subunit of the receptor (5884-6298) cloned in a pRK5 vector. Plasmids were transfected in separate HeLa cultures using 25 μg (PDZD7) and 10 μg (ADGRV1) of DNA per 10 cm dish using TurboFect™ Transfection Reagent (ThermoFisher Scientific) at 3 μl per μg of transfected DNA. Mixes were prepared in volumes of 1 ml/plate (in DMEM), vortexed and incubated up to 30 min at room temperature, cell media were renewed before transfection. After drop by drop addition of the transfection mix, cells were maintained at 37°C for 14 h for protein expression. […] Cells were counted, pelleted and resuspended at similar concentrations in PBS Tween 0.01%, Dodécyl-β-D-maltoside (DDM) 0.1% containing anti-proteases (buffer). […] Target proteins were detected using mouse α-GFP (LivingColors™ JL-8, Takara) and rabbit α-ADGRV1 (custom, raised against the cytoplasmic domain) antibodies (1/2000 in 5% milk TBST), as well as secondary α-mouse and α-rabbit IgG antibodies coupled to HRP (1/2000 in 5% milk TBST). […]

[3] = system: ADGRV1 β subunit; experiment: Pull-down of ADGRV1 β subunit by full-length PDZD7-GFP from HeLa cell lysates; type: binding, murine; conditions: PDZD7-GFP bait, anti-GFP beads, 4°C 1 h, western blot, vs no bait
Method: HeLa cells were maintained in Dulbecco’s modified Eagle’s medium (DMEM) containing 10% fetal calf serum (FCS). PDZD7 constructs correspond to the full-length murine sequence in fusion with a N-terminal strep tag and a C-terminal GFP, wild-type or carrying G103R/G228R variants, cloned in a PMT3 vector. The ADGRV1 construct corresponds to the murine β subunit of the receptor (5884-6298) cloned in a pRK5 vector. Plasmids were transfected in separate HeLa cultures using 25 μg (PDZD7) and 10 μg (ADGRV1) of DNA per 10 cm dish using TurboFect™ Transfection Reagent (ThermoFisher Scientific) at 3 μl per μg of transfected DNA. Mixes were prepared in volumes of 1 ml/plate (in DMEM), vortexed and incubated up to 30 min at room temperature, cell media were renewed before transfection. After drop by drop addition of the transfection mix, cells were maintained at 37°C for 14 h for protein expression. Cells were dissociated using Gibco™ Trypsine-EDTA (0,05%), subsequently inactivated by addition of DMEM containing 10% FCS. Cells were counted, pelleted and resuspended at similar concentrations in PBS Tween 0.01%, Dodécyl-β-D-maltoside (DDM) 0.1% containing anti-proteases (buffer). Benzonase (Sigma) was added before sonication of the cells (40 mA amplitude, 10 pulses of 12 s with 18 s intervals, in ice). An identical volume of ADGRV1 β transfected cell lysate was mixed to either PDZD7 WT, G103R or G228R transfected cell lysates. PDZ proteins have different expression levels, meaning that different amounts of sample are needed to saturate the dynabeads with the PDZ proteins. Pull down experiments have been performed several times allowing us to estimate the yield of expression of each PDZ construct for a given amount of cells. […] Target proteins were detected using mouse α-GFP (LivingColors™ JL-8, Takara) and rabbit α-ADGRV1 (custom, raised against the cytoplasmic domain) antibodies (1/2000 in 5% milk TBST), as well as secondary α-mouse and α-rabbit IgG antibodies coupled to HRP (1/2000 in 5% milk TBST). […]

Molecule	sample stability ([1]; 15N-labelled PDZ2 constructs, NMR)	aggregation ([1]; at temperatures higher than 15 °C, despite extensive screening of buffer conditions)	aggregation ([1]; during biophysical experiments, low yield)	degradation [2]	binding of ADGRV1 β subunit (pull-down) [3]
B1	stable for a few hours only	Rapid aggregation			
B2			severe aggregation		
B3				higher tendency for degradation	a decrease of ADGRV1 quantity bound to the beads was observed in comparison with wild-type PDZD7, similar to the experiment performed without bait
B4				higher tendency for degradation	a decrease of ADGRV1 quantity bound to the beads was observed in comparison with wild-type PDZD7, similar to the experiment performed without bait
